Blank lines part the entries; values can stand above or below the sequence they belong to.
Legend:
HLA-A*02:01 [1] = experiment: IEDB peptide-MHC binding, purified MHC/competitive/radioactivity; filed as Kd, often an IC50 or EC50 that approximates it; ≥ and ≤ were set here for values at or beyond the usual limits of such assays
HLA-A*02:02 = experiment: as above
HLA-A*02:03 [2] = experiment: as above
HLA-A*02:06 = experiment: as above
HLA-A*03:01 [3] = experiment: as above; conditions: source organism: Vaccinia virus WR
HLA-A*11:01 [4] = experiment: as above; conditions: source organism: Vaccinia virus WR
HLA-A*31:01 = experiment: as above; conditions: source organism: Vaccinia virus WR
HLA-A*33:01 = experiment: as above; conditions: source organism: Vaccinia virus WR
HLA-A*68:01 = experiment: as above; conditions: source organism: Vaccinia virus WR
HLA-A*68:02 [5] = experiment: as above
HLA-B*07:02 = experiment: as above; conditions: source organism: Vaccinia virus WR
HLA-B*35:01 = experiment: as above; conditions: source organism: Vaccinia virus WR
HLA-B*51:01 = experiment: as above
HLA-B*53:01 = experiment: as above; conditions: source organism: Vaccinia virus WR
HLA-B*54:01 = experiment: as above; conditions: source organism: Vaccinia virus WR
HLA-B*57:01 [6] = experiment: as above
HLA-A*03:01 [7] = experiment: IEDB peptide-MHC binding, purified MHC/competitive/fluorescence; ≥ and ≤ were set here for values at or beyond the usual limits of such assays
HLA-A*24:02 = experiment: as above
HLA-B*15:01 [8] = experiment: as above
HLA-A*26:01 [9] = experiment: IEDB peptide-MHC binding, purified MHC/competitive/radioactivity; filed as Kd, often an IC50 or EC50 that approximates it; ≥ and ≤ were set here for values at or beyond the usual limits of such assays; conditions: source organism: Dengue virus 2 Jamaica/1409/1983
HLA-A*02:01 [10] = experiment: IEDB peptide-MHC binding, purified MHC/competitive/fluorescence; ≥ and ≤ were set here for values at or beyond the usual limits of such assays
HLA-A*11:01 [11] = experiment: as above
HLA-A*01:01 = experiment: IEDB peptide-MHC binding, purified MHC/direct/fluorescence; filed as Kd, often an IC50 or EC50 that approximates it; ≥ and ≤ were set here for values at or beyond the usual limits of such assays; conditions: source organism: Giardia lamblia ATCC 50803
HLA-A*29:02 = experiment: as above; conditions: source organism: Giardia lamblia ATCC 50803
HLA-A*02:01 [12] = experiment: IEDB peptide-MHC binding, purified MHC/competitive/fluorescence; filed as Kd, often an IC50 or EC50 that approximates it; ≥ and ≤ were set here for values at or beyond the usual limits of such assays; conditions: source organism: Homo sapiens
HLA-A*02:03 [13] = experiment: as above
HLA-A*69:01 = experiment: as above; conditions: source organism: Homo sapiens
HLA-A*03:01 [14] = experiment: as above; conditions: source organism: Cryptosporidium parvum Iowa II
HLA-A*26:01 [15] = experiment: as above; conditions: source organism: Cryptosporidium parvum Iowa II
HLA-A*68:02 [16] = experiment: as above; conditions: source organism: Cryptosporidium parvum Iowa II
HLA-B*15:01 [17] = experiment: as above; conditions: source organism: Cryptosporidium parvum Iowa II
HLA-B*18:01 = experiment: as above; conditions: source organism: Cryptosporidium parvum Iowa II
HLA-B*27:03 = experiment: as above; conditions: source organism: Cryptosporidium parvum Iowa II
HLA-B*39:01 = experiment: as above; conditions: source organism: Cryptosporidium parvum Iowa II
HLA-B*46:01 = experiment: as above; conditions: source organism: Cryptosporidium parvum Iowa II
HLA-B*57:01 [18] = experiment: as above; conditions: source organism: Cryptosporidium parvum Iowa II
[19] = source organism: Vaccinia virus WR
[20] = source organism: Dengue virus 3 Martinique/1243/1999
[21] = source organism: Mammarenavirus brazilense
[22] = source organism: Dengue virus 1 Brazil/97-11/1997
[23] = source organism: Dengue virus 2 Jamaica/1409/1983
[24] = source organism: Zaire ebolavirus
[25] = source organism: Dengue virus 4 Dominica/814669/1981
[26] = source organism: Sudan ebolavirus
[27] = source organism: Vaccinia virus
[28] = source organism: Trypanosoma cruzi

Sequence: EVVMAYVGIK
Kd (HLA-A*02:01 [1]; [19]): 4000 nM | Kd (HLA-A*02:02; [19]): 12000 nM | Kd (HLA-A*02:03 [2]; [19]): 15900 nM | Kd (HLA-A*02:06; [19]): 15000 nM | Kd (HLA-A*03:01 [3]): 413 nM | Kd (HLA-A*11:01 [4]): 97.7 nM | Kd (HLA-A*31:01): 786 nM | Kd (HLA-A*33:01): 1.17 µM | Kd (HLA-A*68:01): 6.68 nM | Kd (HLA-A*68:02 [5]; [19]): 2580 nM | Kd (HLA-B*07:02): 9.98 µM | Kd (HLA-B*35:01): ≥ 23.3 µM | Kd (HLA-B*51:01; [19]): ≥ 23.2 µM | Kd (HLA-B*53:01): 6.77 µM | Kd (HLA-B*54:01): 7.93 µM

Sequence: TTRMENLLW
Kd (HLA-B*57:01 [6]; [20]): 5.23 nM

Sequence: AINIALIAV
Kd (HLA-A*02:02; [21]): 766 nM | Kd (HLA-A*02:03 [2]; [21]): 46.7 nM | Kd (HLA-A*02:06; [21]): 681 nM | Kd (HLA-A*68:02 [5]; [21]): 1300 nM

Sequence: FASGRKSITL
Kd (HLA-B*57:01 [6]; source organism: Dengue virus 4 Philippines/H241/1956): 6170 nM

Sequence: GTSGSPIVNR
Kd (HLA-B*57:01 [6]; [22]): 104 nM

Sequence: MAISGDDCV
Kd (HLA-A*68:02 [5]; [23]): 65.8 nM | Kd (HLA-B*51:01; [23]): 17.4 µM

Sequence: KFMAILQHH
IC50 (HLA-A*03:01 [7]; [24]): ≥ 301 µM | IC50 (HLA-A*24:02; [24]): 16.6 µM | IC50 (HLA-B*15:01 [8]; [24]): ≥ 327 µM

Sequence: EIVDLMCHA
Kd (HLA-A*26:01 [9]): 1580 nM | Kd (HLA-A*68:02 [5]; [23]): 44 nM

Sequence: KNKLYLVDY
IC50 (HLA-B*15:01 [8]; [19]): 34.2 µM

Sequence: MIRILIGFLV
Kd (HLA-A*68:02 [5]; [25]): 295 nM

Sequence: LMLCLHHAY
IC50 (HLA-A*02:01 [10]; [24]): 38.1 µM | IC50 (HLA-B*15:01 [8]; [24]): 22.3 µM

Sequence: TTRLENVMW
Kd (HLA-B*57:01 [6]; [25]): 14.6 nM

Sequence: SSYYATSYL
IC50 (HLA-A*02:01 [10]; [26]): 3.16 µM | IC50 (HLA-A*03:01 [7]; [26]): 18.5 µM | IC50 (HLA-A*11:01 [11]; [26]): 2.7 µM | IC50 (HLA-A*24:02; [26]): 0.955 µM | IC50 (HLA-B*15:01 [8]; [26]): 24.2 µM

Kd (HLA-A*68:02 [5]; source organism: Homo sapiens): ≥ 60000 nM
Sequence: ALKTELEDTL

Sequence: IALGVATAH
IC50 (HLA-A*02:01 [10]; [24]): ≥ 223 µM | IC50 (HLA-A*03:01 [7]; [24]): ≥ 160 µM | IC50 (HLA-A*11:01 [11]; [24]): 10.8 µM | IC50 (HLA-B*15:01 [8]; [24]): 61.1 µM

Sequence: SQGREAAVS
IC50 (HLA-B*15:01 [8]; [24]): 26.9 µM

Sequence: TTSQKTTWLP
Kd (HLA-B*57:01 [6]; [22]): 446 nM

Sequence: MMIQTRAAD
IC50 (HLA-A*02:01 [10]; [27]): ≥ 104 µM | IC50 (HLA-B*15:01 [8]; [27]): ≥ 77.2 µM

Sequence: MILVPLITV
Kd (HLA-A*02:01 [1]; source organism: Variola virus): 14.6 nM | Kd (HLA-A*02:02; source organism: Variola virus): 138 nM | Kd (HLA-A*02:03 [2]; source organism: Variola virus): 29.6 nM | Kd (HLA-A*02:06; source organism: Variola virus): 2.55 nM | Kd (HLA-A*68:02 [5]; source organism: Variola virus): 0.278 nM

Sequence: NTFVLKKEV
Kd (HLA-A*68:02 [5]; [20]): 80.9 nM

Sequence: LTAHYCFLY
Kd (HLA-A*01:01): 7 nM | Kd (HLA-A*29:02): ≤ 1 nM

Sequence: VVRLLTKPW
Kd (HLA-B*57:01 [6]; [23]): 27.9 nM

Sequence: LLTACTIFYI
Kd (HLA-A*02:02; [19]): 2.72 nM | Kd (HLA-A*02:03 [2]; [19]): 11.8 nM | Kd (HLA-A*02:06; [19]): 55.8 nM | Kd (HLA-A*33:01): 7.39 µM | Kd (HLA-A*68:02 [5]; [19]): 229 nM | Kd (HLA-B*07:02): ≥ 69.6 µM | Kd (HLA-B*35:01): ≥ 69.9 µM | Kd (HLA-B*51:01; [19]): ≥ 69.6 µM | Kd (HLA-B*53:01): ≥ 22.1 µM | Kd (HLA-B*54:01): ≥ 27.6 µM

Sequence: SQIPSSSPT
IC50 (HLA-A*02:01 [10]; [26]): 30 µM | IC50 (HLA-B*15:01 [8]; [26]): 8.51 µM

Kd (HLA-A*68:02 [5]; source organism: Homo sapiens): 44 nM
Sequence: ETVSEESNV

Sequence: FIAFLRFLA
Kd (HLA-A*68:02 [5]; [22]): ≤ 1 nM

Kd (HLA-A*02:01 [12]): ≥ 20 µM | Kd (HLA-A*02:03 [13]; source organism: Homo sapiens): ≥ 20 µM | Kd (HLA-A*69:01): ≥ 20 µM
Sequence: IRVEGNLRV

Sequence: GLLLLLLLLG
Kd (HLA-A*02:01 [1]; [28]): 171 nM | Kd (HLA-A*02:02; [28]): 456 nM | Kd (HLA-A*02:03 [2]; [28]): 330 nM | Kd (HLA-A*02:06; [28]): 420 nM | Kd (HLA-A*68:02 [5]; [28]): 1790 nM

Sequence: TIIGTNGNH
IC50 (HLA-B*15:01 [8]; [26]): ≥ 150 µM

Sequence: KSWLVHWSL
Kd (HLA-A*02:03 [13]; source organism: Cryptosporidium parvum Iowa II): ≥ 20 µM | Kd (HLA-A*03:01 [14]): ≥ 20 µM | Kd (HLA-A*26:01 [15]): ≥ 20 µM | Kd (HLA-A*68:02 [16]): ≥ 20 µM | Kd (HLA-B*15:01 [17]): ≥ 20 µM | Kd (HLA-B*18:01): ≥ 20 µM | Kd (HLA-B*27:03): ≥ 20 µM | Kd (HLA-B*39:01): ≥ 20 µM | Kd (HLA-B*46:01): ≥ 20 µM | Kd (HLA-B*57:01 [18]): 32.8 nM

— the Immune Epitope Database (IEDB)
